Molecular target: sVP40Δ43 R214A (Sudan virus) (UniProt Q5XX06)
Assay: SEC

sVP40Δ43 R214A (from UniProt Q5XX06 44-326) (domain or fragment)
octameric percentage of total VP40 AUC: 50%

Reference: article PMC11292656
